Assay results from article PMC9464592 (Nature, 2022).

What was measured:
Experiment in all cases: cryo-EM structure
tag-free WDR59 = target: T1, tag-free WDR59 (human, UniProt Q6PJI9 1-974)
T1 sequence: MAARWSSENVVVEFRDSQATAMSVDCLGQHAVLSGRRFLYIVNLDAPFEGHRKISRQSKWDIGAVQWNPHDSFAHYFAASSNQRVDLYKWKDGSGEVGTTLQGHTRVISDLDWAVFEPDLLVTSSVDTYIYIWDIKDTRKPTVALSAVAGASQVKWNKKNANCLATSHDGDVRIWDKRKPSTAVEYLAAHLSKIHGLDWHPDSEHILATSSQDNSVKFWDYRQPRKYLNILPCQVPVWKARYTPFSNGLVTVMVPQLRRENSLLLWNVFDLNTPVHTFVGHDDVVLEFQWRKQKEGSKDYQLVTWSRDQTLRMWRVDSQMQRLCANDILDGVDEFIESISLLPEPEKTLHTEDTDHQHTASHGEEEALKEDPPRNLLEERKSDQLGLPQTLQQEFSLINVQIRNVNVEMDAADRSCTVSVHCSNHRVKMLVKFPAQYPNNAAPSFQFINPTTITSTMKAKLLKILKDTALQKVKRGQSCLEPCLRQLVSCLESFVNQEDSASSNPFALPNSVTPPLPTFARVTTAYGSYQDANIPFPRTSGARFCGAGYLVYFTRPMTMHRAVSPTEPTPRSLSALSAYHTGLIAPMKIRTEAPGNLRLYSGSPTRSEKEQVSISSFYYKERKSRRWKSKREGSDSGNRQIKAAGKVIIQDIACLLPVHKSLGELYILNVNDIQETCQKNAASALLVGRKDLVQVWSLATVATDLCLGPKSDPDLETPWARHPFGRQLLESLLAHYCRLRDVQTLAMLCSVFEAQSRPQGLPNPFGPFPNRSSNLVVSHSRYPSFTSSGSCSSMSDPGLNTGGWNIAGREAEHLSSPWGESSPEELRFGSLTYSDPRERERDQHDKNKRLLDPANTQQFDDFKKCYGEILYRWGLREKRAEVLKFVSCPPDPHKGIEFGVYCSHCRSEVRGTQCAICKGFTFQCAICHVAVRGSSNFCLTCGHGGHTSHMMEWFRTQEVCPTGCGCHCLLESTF

tag-free WDR24 = target: T2, tag-free WDR24 (human, UniProt Q96S15 1-790)
T2 sequence: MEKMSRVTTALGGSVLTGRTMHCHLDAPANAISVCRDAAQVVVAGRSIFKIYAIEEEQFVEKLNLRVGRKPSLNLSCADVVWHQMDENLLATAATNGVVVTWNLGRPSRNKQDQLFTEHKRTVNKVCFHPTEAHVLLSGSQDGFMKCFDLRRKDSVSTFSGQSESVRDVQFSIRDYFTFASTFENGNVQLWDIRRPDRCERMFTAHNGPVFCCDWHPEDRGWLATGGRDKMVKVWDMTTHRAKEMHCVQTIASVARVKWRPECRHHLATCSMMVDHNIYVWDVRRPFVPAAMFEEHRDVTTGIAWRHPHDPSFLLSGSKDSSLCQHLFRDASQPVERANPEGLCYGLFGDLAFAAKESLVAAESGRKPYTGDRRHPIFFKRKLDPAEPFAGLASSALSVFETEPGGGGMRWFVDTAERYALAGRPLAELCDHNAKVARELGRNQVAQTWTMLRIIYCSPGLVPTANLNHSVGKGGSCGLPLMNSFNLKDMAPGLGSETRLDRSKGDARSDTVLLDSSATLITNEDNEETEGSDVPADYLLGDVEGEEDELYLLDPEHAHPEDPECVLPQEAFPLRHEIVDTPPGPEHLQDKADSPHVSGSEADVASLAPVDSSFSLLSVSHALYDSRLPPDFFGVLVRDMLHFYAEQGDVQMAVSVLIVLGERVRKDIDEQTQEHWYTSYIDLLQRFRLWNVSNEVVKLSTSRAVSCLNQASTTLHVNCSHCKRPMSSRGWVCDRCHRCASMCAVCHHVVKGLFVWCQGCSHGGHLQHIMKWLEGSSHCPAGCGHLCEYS

[1] = target: T3, N-terminally Flag-tagged MIOS (human, UniProt Q9NXC5 1-875)
T3 sequence: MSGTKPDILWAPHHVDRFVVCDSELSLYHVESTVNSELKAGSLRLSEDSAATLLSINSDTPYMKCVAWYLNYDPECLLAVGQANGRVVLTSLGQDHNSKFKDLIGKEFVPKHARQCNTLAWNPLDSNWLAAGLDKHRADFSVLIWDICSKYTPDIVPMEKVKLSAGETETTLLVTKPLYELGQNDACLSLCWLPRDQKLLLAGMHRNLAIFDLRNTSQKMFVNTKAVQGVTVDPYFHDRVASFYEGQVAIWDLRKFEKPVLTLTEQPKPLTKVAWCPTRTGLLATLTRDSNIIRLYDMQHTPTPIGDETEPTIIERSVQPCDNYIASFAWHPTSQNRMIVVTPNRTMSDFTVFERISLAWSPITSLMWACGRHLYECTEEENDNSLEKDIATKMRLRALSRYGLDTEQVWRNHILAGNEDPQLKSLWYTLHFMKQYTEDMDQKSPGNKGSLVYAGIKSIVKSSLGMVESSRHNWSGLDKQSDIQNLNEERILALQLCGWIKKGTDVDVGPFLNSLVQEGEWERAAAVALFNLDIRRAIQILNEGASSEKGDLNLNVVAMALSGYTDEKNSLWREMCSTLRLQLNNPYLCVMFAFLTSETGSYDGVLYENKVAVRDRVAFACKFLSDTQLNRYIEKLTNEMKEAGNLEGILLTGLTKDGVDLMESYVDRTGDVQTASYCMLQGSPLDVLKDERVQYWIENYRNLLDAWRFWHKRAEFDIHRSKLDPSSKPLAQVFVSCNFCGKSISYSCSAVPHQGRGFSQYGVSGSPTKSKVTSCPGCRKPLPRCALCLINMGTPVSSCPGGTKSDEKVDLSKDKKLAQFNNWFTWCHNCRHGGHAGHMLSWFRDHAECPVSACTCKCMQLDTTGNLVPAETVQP

Measured: binding result

B1: tag-free SEC13 (natural protein, human)
chain: MVSVINTVDTSHEDMIHDAQMDYYGTRLATCSSDRSVKIFDVRNGGQILIADLRGHEGPVWQVAWAHPMYGNILASCSYDRKVIIWREENGTWEKSHEHAGHDSSVNSVCWAPHDYGLILACGSSDGAISLLTYTGEGQWEVKKINNAHTIGCNAVSWAPAVVPGSLIDHPSGQKPNYIKRFASGGCDNLIKLWKEEEDGQWKEEQKLEAHSDWVRDVAWAPSIGLPTSTIASCSQDGRVFIWTCDDASSNTWSPKLLHKFNDVVWHVSWSITANILAVSGGDNKVTLWKESVDGQWVCISDVNKGQGSVSASVTEGQQNEQ
binds: all assays above
